Assay results from paper doi:10.1101/2024.07.30.605930 (bioRxiv, 2024).
Where a chain is given by its changes, count along the chain named. Names may count otherwise. “And” between values parts separate entries of the source, which are not always exact repeats. Equal values may be shown once.

B1: FliF (natural protein, Salmonella enterica serovar Typhimurium, UniProt P15928 1-560, looked up)
chain: MSATASTATQPKPLEWLNRLRANPRIPLIVAGSAAVAIVVAMVLWAKTPDYRTLFSNLSDQDGGAIVAQLTQMNIPYRFANGSGAIEVPADKVHELRLRLAQQGLPKGGAVGFELLDQEKFGISQFSEQVNYQRALEGELARTIETLGPVKSARVHLAMPKPSLFVREQKSPSASVTVTLEPGRALDEGQISAVVHLVSSAVAGLPPGNVTLVDQSGHLLTQSNTSGRDLNDAQLKFANDVESRIQRRIEAILSPIVGNGNVHAQVTAQLDFANKEQTEEHYSPNGDASKATLRSRQLNISEQVGAGYPGGVPGALSNQPAPPNEAPIATPPTNQQNAQNTPQTSTSTNSNSAGPRSTQRNETSNYEVDRTIRHTKMNVGDIERLSVAVVVNYKTLADGKPLPLTADQMKQIEDLTREAMGFSDKRGDTLNVVNSPFSAVDNTGGELPFWQQQSFIDQLLAAGRWLLVLVVAWILWRKAVRPQLTRRVEEAKAAQEQAQVRQETEEAVEVRLSKDEQLQQRRANQRLGAEVMSQRIREMSDNDPRVVALVIRQWMSNDHE
B2: FliF(Δ214–220) (natural protein, Salmonella enterica serovar Typhimurium)
chain: MSATASTATQPKPLEWLNRLRANPRIPLIVAGSAAVAIVVAMVLWAKTPDYRTLFSNLSDQDGGAIVAQLTQMNIPYRFANGSGAIEVPADKVHELRLRLAQQGLPKGGAVGFELLDQEKFGISQFSEQVNYQRALEGELARTIETLGPVKSARVHLAMPKPSLFVREQKSPSASVTVTLEPGRALDEGQISAVVHLVSSAVAGLPPGNVTLVTQSNTSGRDLNDAQLKFANDVESRIQRRIEAILSPIVGNGNVHAQVTAQLDFANKEQTEEHYSPNGDASKATLRSRQLNISEQVGAGYPGGVPGALSNQPAPPNEAPIATPPTNQQNAQNTPQTSTSTNSNSAGPRSTQRNETSNYEVDRTIRHTKMNVGDIERLSVAVVVNYKTLADGKPLPLTADQMKQIEDLTREAMGFSDKRGDTLNVVNSPFSAVDNTGGELPFWQQQSFIDQLLAAGRWLLVLVVAWILWRKAVRPQLTRRVEEAKAAQEQAQVRQETEEAVEVRLSKDEQLQQRRANQRLGAEVMSQRIREMSDNDPRVVALVIRQWMSNDHE
B3: FliFΔ(221–227) (natural protein, Salmonella enterica serovar Typhimurium)
chain: B2 chain with T214D, N217G, T218H, S219L, G220L
B4: FliF(Δ165–167) (natural protein, Salmonella enterica serovar Typhimurium)
chain: MSATASTATQPKPLEWLNRLRANPRIPLIVAGSAAVAIVVAMVLWAKTPDYRTLFSNLSDQDGGAIVAQLTQMNIPYRFANGSGAIEVPADKVHELRLRLAQQGLPKGGAVGFELLDQEKFGISQFSEQVNYQRALEGELARTIETLGPVKSARVHLAMPKPSLEQKSPSASVTVTLEPGRALDEGQISAVVHLVSSAVAGLPPGNVTLVDQSGHLLTQSNTSGRDLNDAQLKFANDVESRIQRRIEAILSPIVGNGNVHAQVTAQLDFANKEQTEEHYSPNGDASKATLRSRQLNISEQVGAGYPGGVPGALSNQPAPPNEAPIATPPTNQQNAQNTPQTSTSTNSNSAGPRSTQRNETSNYEVDRTIRHTKMNVGDIERLSVAVVVNYKTLADGKPLPLTADQMKQIEDLTREAMGFSDKRGDTLNVVNSPFSAVDNTGGELPFWQQQSFIDQLLAAGRWLLVLVVAWILWRKAVRPQLTRRVEEAKAAQEQAQVRQETEEAVEVRLSKDEQLQQRRANQRLGAEVMSQRIREMSDNDPRVVALVIRQWMSNDHE
B5: FliF(G217W) (natural protein, Salmonella enterica serovar Typhimurium)
chain: B1 chain with G217W
B6: FliF(G217P) (natural protein, Salmonella enterica serovar Typhimurium)
chain: B1 chain with G217P
B7: FliF(G217A) (natural protein, Salmonella enterica serovar Typhimurium)
chain: B1 chain with G217A

Molecular target: the molecule itself
Assay: cryo-EM structure

B1 was tested. Which “stoichiometry N” value did it give?
Its value is 33 and 34.

Molecular target: the molecule itself
Assay: negative-stain EM

Does B2 bind?
Result: binds

Does B3 bind?
Result: binds

Does B4 bind?
Result: binds

Does B5 bind?
Result: binds

Does B6 bind?
Result: binds

Does B7 bind?
Result: binds
